This is an account of results in US11788081 (STICHTING VU, dated 2023).

Non-standard residues stand in square brackets, D forms with d. *: point of attachment. FITC = O=C1OC2(c3ccc(O)cc3Oc3cc(O)ccc32)c2ccc(NC(=S)*)cc21; Nle = CCCC[C@H](N)C(=O)O; AEEA = NCCOCCOCC(=O)O

The target in this assay is T1, KIX domain from the human CREB binding protein (KIX wt) (human, UniProt Q92793 587-672).
T1 construct: domain: KIX domain; Expressed as GST fusion in E. coli, GST removed by PreScission cleavage
As to the kind of experiment: fluorescence polarization, FITC-labeled MLL peptide, protein titrated 70 µM-0 µM. As for the experimental part: Binding of K1-t1 and K1-t2 to mixed lineage leukemia (MLL) transcription factor was evaluated using the FITC-labeled peptide FITC-020c-[…](Nle)[…]-NH2 (SEQ ID NO: 6). This sequence is derived from MLL and will be refereed as MLL peptide throughout. A 40 nM solution of MLL peptide in 25 mM HEPES (pH 7.4), 100 mM NaCl and 2 mM TCEP was prepared. A 3-fold dilution of KIX, K1-t1 and K1-t2 was performed in 14 steps on a 384-well-plate (black, round bottom, Corning) using the same buffer. 5 μL of 40 nM MLL peptide solution was then added, and the final 20 μL solution was incubated at r.t. A final protein range of 70 μM-0 μM was used. After 1 h-incubation, fluorescence polarization was measured using a Spark 20M plate reader (Tecan) with λ(ex)=485 nm and λ(em)=525 nm. Kd were determined by applying nonlinear regression analysis of dose-response curves in GraphPad Prism software.

T1 sequence (Q92793 587-672 limits assumed): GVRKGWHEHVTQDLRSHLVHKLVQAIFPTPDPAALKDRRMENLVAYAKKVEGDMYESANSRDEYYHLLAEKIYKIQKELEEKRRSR

B1: MLL peptide FITC-O2Oc-GNILPSDI(Nle)DFVLKNTP-NH2 (peptide)
peptide: {FITC-AEEA}-GNILPSDI[Nle]DFVLKNTP-NH2
notes: Synthetic peptide made by Fmoc SPPS on Rink amide resin; Used at 10 nM final (5 uL of 40 nM in 20 uL) in the FP assay; also called mixed lineage leukemia (MLL) transcription factor derived peptide
Consider B1, for which the Kd (commonly the equilibrium constant for the complex coming apart) is 600 nM.
